In publication PMC9427786, “Structure–function characterization of an aldo–keto reductase involved in detoxification of the mycotoxin, deoxynivalenol” (Scientific Reports, 2022):
Read-outs that look alike come from different tables or passages of the source.

What was measured:
[1] = target: DepB from Rhizobium leguminosarum (DepB_(Rleg)) (Rhizobium leguminosarum); assay: SEC-MALS; P3000 single-pore GPC/SEC column; 20 mM HEPES, 150 mM NaCl, 0.02% NaN3, pH 7; protein at 0.5 mg/mL
[2] = target: T1, DepBRleg (Rhizobium leguminosarum, UniProt J0WHR2); assay: NADPH oxidation at […] nm; assay type: biochemical
T1 construct: gene Rleg4DRAFT_7458; N-terminal His-tag, pET28a (NdeI/HindIII), expressed in E. coli BL21 LOBSTR; about 39 kDa protomer; octamer

[3] = target: T2, DepBRleg (Rhizobium leguminosarum, UniProt J0WHR2, R290E); assay: tryptophan fluorescence quenching; assay type: binding
T2 construct: gene Rleg4DRAFT_7458; N-terminal His-tag, pET28a (NdeI/HindIII), expressed in E. coli BL21 LOBSTR; about 39 kDa protomer; octamer
Source text: (§1) tryptophan fluorescence quenching on DepBRleg

[4] = target: T3, DepBRleg (Rhizobium leguminosarum, UniProt J0WHR2, Q294E); assay: tryptophan fluorescence quenching; assay type: binding
T3 construct: gene Rleg4DRAFT_7458; N-terminal His-tag, pET28a (NdeI/HindIII), expressed in E. coli BL21 LOBSTR; about 39 kDa protomer; octamer
Source text: as §1

[5] = target: T4, DepBRleg (Rhizobium leguminosarum, UniProt J0WHR2, R290N); assay: tryptophan fluorescence quenching; assay type: binding
T4 construct: gene Rleg4DRAFT_7458; N-terminal His-tag, pET28a (NdeI/HindIII), expressed in E. coli BL21 LOBSTR; about 39 kDa protomer; octamer
Source text: as §1

[6] = target: T5, DepBRleg (Rhizobium leguminosarum, UniProt J0WHR2, K217E); assay: tryptophan fluorescence quenching; assay type: binding
T5 construct: gene Rleg4DRAFT_7458; N-terminal His-tag, pET28a (NdeI/HindIII), expressed in E. coli BL21 LOBSTR; about 39 kDa protomer; octamer
Source text: as §1

[7] = target: T6, DepBRleg (Rhizobium leguminosarum, UniProt J0WHR2, K217M); assay: tryptophan fluorescence quenching; assay type: binding
T6 construct: gene Rleg4DRAFT_7458; N-terminal His-tag, pET28a (NdeI/HindIII), expressed in E. coli BL21 LOBSTR; about 39 kDa protomer; octamer
Source text: as §1

[8] = target: T1, DepBRleg; assay: tryptophan fluorescence quenching; assay type: binding
Source text: as §1

[9] = tested on: O=C1C(=O)c2ccccc2-c2ccccc21; assay: purified protein; assay type: biochemical, Rhizobium leguminosarum; settings: pH 7.5; 25.0 °C
[10] = substrate: O=C1Nc2ccccc2C1=O; assay: purified protein; assay type: biochemical, Rhizobium leguminosarum; settings: 1 mM NADPH, 100 mM HEPES pH 7.5, 298 K, about 10% DMSO, 25.0 °C
[11] = substrate: CCCC=O; assay: purified protein; assay type: biochemical, Rhizobium leguminosarum; settings: 1 mM NADPH, 100 mM HEPES pH 7.5, 298 K, about 10% DMSO, 25.0 °C
[12] = substrate: CCCCCC(=O)/C=C/C=O; assay: purified protein; assay type: biochemical, Rhizobium leguminosarum; settings: 1 mM NADPH, 100 mM HEPES pH 7.5, 298 K, about 10% DMSO, 25.0 °C
[13] = substrate: NC(=O)C1=CN([C@@H]2O[C@H](COP(=O)(O)OP(=O)(O)OC[C@H]3O[C@@H](n4cnc5c(N)ncnc54)[C@H](OP(=O)(O)O)[C@@H]3O)[C@@H](O)[C@H]2O)C=CC1; assay: purified protein; assay type: biochemical, Rhizobium leguminosarum; settings: 10 mM DL-glyceraldehyde, 100 mM HEPES pH 7.5, 298 K, 25.0 °C, varied: cofactor
[14] = substrate: O=CC(O)CO; assay: purified protein; assay type: biochemical, Rhizobium leguminosarum; settings: 1 mM NADPH, 100 mM HEPES pH 7.5, 298 K, about 10% DMSO, 25.0 °C
[15] = substrate: CCCCCC=O; assay: purified protein; assay type: biochemical, Rhizobium leguminosarum; settings: 1 mM NADPH, 100 mM HEPES pH 7.5, 298 K, about 10% DMSO, 25.0 °C
[16] = substrate: NC(=O)C1=CN([C@@H]2O[C@H](COP(=O)(O)OP(=O)(O)OC[C@H]3O[C@@H](n4cnc5c(N)ncnc54)[C@H](O)[C@@H]3O)[C@@H](O)[C@H]2O)C=CC1; assay: purified protein; settings: 10 mM DL-glyceraldehyde, 100 mM HEPES pH 7.5, 298 K, 25.0 °C, varied: cofactor

DepB from Rhizobium leguminosarum (DepB_(Rleg)) (enzyme)
stoichiometry N [1]: 8

O=C1C=C2C(=CCOC2O)O1 (stereo not drawn) [Patulin]
Km ([2]; read-out: Km,app; 1 mM NADPH, 100 mM HEPES pH 7.5, 298 K, about 10% DMSO): 678 ± 85.5 µM

NC(=O)C1=CN([C@@H]2O[C@H](COP(=O)(O)OP(=O)(O)OC[C@H]3O[C@@H](n4cnc5c(N)ncnc54)[C@H](OP(=O)(O)O)[C@@H]3O)[C@@H](O)[C@H]2O)C=CC1 [NADPH]
Kd [3]: 123 ± 6.2 µM
Kd [4]: 97.9 ± 13 µM
Kd [5]: 59.5 ± 4.2 µM
Kd [6]: 68.6 ± 8.7 µM
Kd [7]: 74.1 ± 4.6 µM
Kd [8]: 11.4 ± 0.84 µM

NC(=O)C1=CN([C@@H]2O[C@H](COP(=O)(O)OP(=O)(O)OC[C@H]3O[C@@H](n4cnc5c(N)ncnc54)[C@H](O)[C@@H]3O)[C@@H](O)[C@H]2O)C=CC1 [NADH]
Kd [3]: 119 ± 9.8 µM
Kd [4]: 91.2 ± 10 µM
Kd [8]: 67.3 ± 2.5 µM

C=CC=O [Acrolein]
Km ([2]; 1 mM NADPH, 100 mM HEPES pH 7.5, 298 K, about 10% DMSO; read-out: Km,app): 83.3 ± 6.69 µM

DepBRleg (Rhizobium leguminosarum bv. trifolii WSM2297)
Km [9]: 68.3 ± 14.3 µM

B1: DepBRleg (Rhizobium leguminosarum bv. trifolii WSM2297) (protein)
chain: MDYRKLGPSGTVVTAYCLGTMTFGAEADEAASHKLLDDYFAWGGNFIDTADVYSAGKSEEIIGRWLKARPTEARQAIVATKGRFPMGNGPNDIGLSRRHLSQALDDSLRRLGLEQIDLYQMHAWDALTPIEETLRFLDDAVSSGKIGYYGFSNYVGWHIAKASEIAKARGYTRPVTLQPQYNLLMRDIELEIVAACQDAGMGLLPWSPLGGGWLTGKYKRDEMPTGATRLGENPNRGGESYAPRNAQERTWAIIGTVEEIAKARGVSMAQVALAWTAARPAITSVILGARTPEQLADNLGAMKVELSGEEMARLNEVSAPQPLDYPYGKGGINQRHRKIEGGR
Km [10]: 1780 ± 410 µM
kcat [10]: 6.43 ± 0.920 s⁻¹
Km [11]: 617 ± 33.5 µM
kcat [11]: 0.410 ± 0.00922 s⁻¹
Km [12]: 1020 ± 136 µM
kcat [12]: 7.90 ± 0.678 s⁻¹
Km [13]: 15.2 ± 1.41 µM
kcat [13]: 0.337 ± 0.00757 s⁻¹
Km [14]: 3.89 ± 0.516 mM
kcat [14]: 0.782 ± 0.0803 s⁻¹
Km [15]: 1230 ± 231 µM
kcat [15]: 0.303 ± 0.0269 s⁻¹
Km [16]: 1560 ± 399 µM
kcat [16]: 0.0242 ± 0.00344 s⁻¹
